Experimental data taken from patent US8785135B2, “Mutant G-protein coupled receptors and methods for selecting them” (Heptares Therapeutics Limited, priority 2007, dated 2014).
Substitutions are numbered along the chain they refer to. Names may count otherwise.

B1: V313A: NTR point mutant (protein, UniProt P20789 1-424, looked up, variant V313A)
Neurotensin receptor type 1: MHLNSSVPQGTPGEPDAQPFSGPQSEMEATFLALSLSNGSGNTSESDTAGPNSDLDVNTDIYSKVLVTAIYLALFVVGTVGNSVTAFTLARKKSLQSLQSTVHYHLGSLALSDLLILLLAMPVELYNFIWVHHPWAFGDAGCRGYYFLRDACTYATALNVASLSVERYLAICHPFKAKTLMSRSRTKKFISAIWLASALLAIPMLFTMGLQNRSGDGTHPGGLVCTPIVDTATVKVVIQVNTFMSFLFPMLVISILNTVIANKLTVMVHQAAEQGRVCTVGTHNGLEHSTFNMTIEPGRVQALRHGVLVLRAAVIAFVVCWLPYHVRRLMFCYISDEQWTTFLFDFYHYFYMLTNALFYVSSAINPILYNLVSANFRQVFLSTLACLCPGWRHRRKKRPTFSRKPNSMSSNHAFSTSATRETLY
B2: G390A: NTR point mutant (protein, UniProt P20789 1-424, looked up, variant G390A)
Neurotensin receptor type 1: B1 Neurotensin receptor type 1 with A313V, G390A
B3: A86L: NTR point mutant (protein, UniProt P20789 1-424, looked up, variant A86L)
Neurotensin receptor type 1: B1 Neurotensin receptor type 1 with A86L, A313V
B4: R395A: NTR point mutant (protein, UniProt P20789 1-424, looked up, variant R395A)
Neurotensin receptor type 1: B1 Neurotensin receptor type 1 with A313V, R395A
B5: F380A: NTR point mutant (protein, UniProt P20789 1-424, looked up, variant F380A)
Neurotensin receptor type 1: B1 Neurotensin receptor type 1 with A313V, F380A
B6: D345A: NTR point mutant (protein, UniProt P20789 1-424, looked up, variant D345A)
Neurotensin receptor type 1: B1 Neurotensin receptor type 1 with A313V, D345A
B7: S373A: NTR point mutant (protein, UniProt P20789 1-424, looked up, variant S373A)
Neurotensin receptor type 1: B1 Neurotensin receptor type 1 with A313V, S373A
B8: A385L: NTR point mutant (protein, UniProt P20789 1-424, looked up, variant A385L)
Neurotensin receptor type 1: B1 Neurotensin receptor type 1 with A313V, A385L
B9: Y349A: NTR point mutant (protein, UniProt P20789 1-424, looked up, variant Y349A)
Neurotensin receptor type 1: B1 Neurotensin receptor type 1 with A313V, Y349A
B10: V360A: NTR point mutant (protein, UniProt P20789 1-424, looked up, variant V360A)
Neurotensin receptor type 1: B1 Neurotensin receptor type 1 with A313V, V360A
B11: N370A: NTR point mutant (protein, UniProt P20789 1-424, looked up, variant N370A)
Neurotensin receptor type 1: B1 Neurotensin receptor type 1 with A313V, N370A
B12: F342A: NTR point mutant (protein, UniProt P20789 1-424, looked up, variant F342A)
Neurotensin receptor type 1: B1 Neurotensin receptor type 1 with A313V, F342A
B13: P389A: NTR point mutant (protein, UniProt P20789 1-424, looked up, variant P389A)
Neurotensin receptor type 1: B1 Neurotensin receptor type 1 with A313V, P389A
B14: A203L: A2aR point mutant (protein, UniProt P29274 1-412, looked up, variant A203L)
Adenosine receptor A2a: MPIMGSSVYITVELAIAVLAILGNVLVCWAVWLNSNLQNVTNYFVVSLAAADIAVGVLAIPFAITISTGFCAACHGCLFIACFVLVLTQSSIFSLLAIAIDRYIAIRIPLRYNGLVTGTRAKGIIAICWVLSFAIGLTPMLGWNNCGQPKEGKNHSQGCGEGQVACLFEDVVPMNYMVYFNFFACVLVPLLLMLGVYLRIFLLARRQLKQMESQPLPGERARSTLQKEVHAAKSLAIIVGLFALCWLPLHIINCFTFFCPDCSHAPLWLMYLAIVLSHTNSVVNPFIYAYRIREFRQTFRKIIRSHVLRQQEPFKAAGTSARVLAAHGSDGEQVSLRLNGHPPGVWANGSAPHPERRPNGYALGLVSGGSAQESQGNTGLPDVELLSHELKGVCPEPPGLDDPLAQDGAGVS
B15: L241A: A2aR point mutant (protein, UniProt P29274 1-412, looked up, variant L241A)
Adenosine receptor A2a: B14 Adenosine receptor A2a with L203A, L241A
B16: K227A: A2aR point mutant (protein, UniProt P29274 1-412, looked up, variant K227A)
Adenosine receptor A2a: B14 Adenosine receptor A2a with L203A, K227A
B17: S263A: A2aR point mutant (protein, UniProt P29274 1-412, looked up, variant S263A)
Adenosine receptor A2a: B14 Adenosine receptor A2a with L203A, S263A
B18: H230A: A2aR point mutant (protein, UniProt P29274 1-412, looked up, variant H230A)
Adenosine receptor A2a: B14 Adenosine receptor A2a with L203A, H230A
B19: P313A: A2aR point mutant (protein, UniProt P29274 1-412, looked up, variant P313A)
Adenosine receptor A2a: B14 Adenosine receptor A2a with L203A, P313A
B20: P260A: A2aR point mutant (protein, UniProt P29274 1-412, looked up, variant P260A)
Adenosine receptor A2a: B14 Adenosine receptor A2a with L203A, P260A
B21: N284A: A2aR point mutant (protein, UniProt P29274 1-412, looked up, variant N284A)
Adenosine receptor A2a: B14 Adenosine receptor A2a with L203A, N284A
B22: E219A: A2aR point mutant (protein, UniProt P29274 1-412, looked up, variant E219A)
Adenosine receptor A2a: B14 Adenosine receptor A2a with L203A, E219A
B23: Rant17: A2aR mutant A54L+K122A+L235A (protein, UniProt P29274 1-412, looked up, variant A54L K122A L235A)
Adenosine receptor A2a: B14 Adenosine receptor A2a with A54L, K122A, L203A, L235A
B24: Q210A: A2aR point mutant (protein, UniProt P29274 1-412, looked up, variant Q210A)
Adenosine receptor A2a: B14 Adenosine receptor A2a with L203A, Q210A
B25: L208A: A2aR point mutant (protein, UniProt P29274 1-412, looked up, variant L208A)
Adenosine receptor A2a: B14 Adenosine receptor A2a with L203A, L208A
B26: R220A: A2aR point mutant (protein, UniProt P29274 1-412, looked up, variant R220A)
Adenosine receptor A2a: B14 Adenosine receptor A2a with L203A, R220A
B27: T224A: A2aR point mutant (protein, UniProt P29274 1-412, looked up, variant T224A)
Adenosine receptor A2a: B14 Adenosine receptor A2a with L203A, T224A
B28: K315A: A2aR point mutant (protein, UniProt P29274 1-412, looked up, variant K315A)
Adenosine receptor A2a: B14 Adenosine receptor A2a with L203A, K315A
B29: L272A: A2aR point mutant (protein, UniProt P29274 1-412, looked up, variant L272A)
Adenosine receptor A2a: B14 Adenosine receptor A2a with L203A, L272A
B30: L267A: A2aR point mutant (protein, UniProt P29274 1-412, looked up, variant L267A)
Adenosine receptor A2a: B14 Adenosine receptor A2a with L203A, L267A
B31: S213A: A2aR point mutant (protein, UniProt P29274 1-412, looked up, variant S213A)
Adenosine receptor A2a: B14 Adenosine receptor A2a with L203A, S213A
B32: Q226A: A2aR point mutant (protein, UniProt P29274 1-412, looked up, variant Q226A)
Adenosine receptor A2a: B14 Adenosine receptor A2a with L203A, Q226A
B33: S223A: A2aR point mutant (protein, UniProt P29274 1-412, looked up, variant S223A)
Adenosine receptor A2a: B14 Adenosine receptor A2a with L203A, S223A
B34: Q311A: A2aR point mutant (protein, UniProt P29274 1-412, looked up, variant Q311A)
Adenosine receptor A2a: B14 Adenosine receptor A2a with L203A, Q311A

Columns and labels:
[1] = Thermostability of NTR and mutants (3H-neurotensin binding); format: physicochemical; conditions: for thermostability, heated in the presence of 3H-neurotensin: Ligand(+) format; for thermostability, 3H-neurotensin (agonist) binding after the heating step: heated in the absence of the agonist
[2] = Thermostability of A2aR and mutants (ligand binding after or during heating); format: physicochemical
Description: FIG. 12 Flow chart showing the two different assay formats of ligand (+) and ligand (−) used to determine receptor thermostability.
• 1. 315 site-directed mutants made between residues 2-316 of A2aR. • 2. All of these mutants have been assayed for thermostability using an assay measuring agonist and antagonist binding after the heating step (Ligand(−) format as described in FIG. 12). • a. […] Mutations have been combined to generate mutants in a putative antagonist conformation. Wildtype A2aR has a Tm of 31° C. with ZM241385 bound. • a. Rant17 A54L+K122A+L235A Tm 48° C. (ZM241385 bound) • b. Rant19 A54L, T88A, V239A+A204L Tm 47° C. (ZM241385 bound) • c. Rant21 A54L, T88A, V239A+K122A Tm 49° C. (ZM241385 bound) • 4. Mutations from the agonist screen have been combined, but have led to only a very low level of improvement in Tm of +2° C.

[3] = Ligand(−) format, binding after the heating step

Molecule | thermostability, heated in the presence of 3H-neurotensin [1] | thermostability measured with 3H-NECA (agonist) [2, 3] | further results
B1 | improved thermostability | – | –
B2 | improved thermostability | – | –
B3 | improved thermostability | – | thermostability, 3H-neurotensin (agonist) binding after the heating step [1]: small but significant increase in thermostability
B4 | improved thermostability | – | –
B5 | improved thermostability | – | –
B6 | – | – | thermostability, 3H-neurotensin (agonist) binding after the heating step [1]: small but significant increase in thermostability
B7 | improved thermostability | – | –
B8 | improved thermostability | – | thermostability, 3H-neurotensin (agonist) binding after the heating step [1]: small but significant increase in thermostability
B9 | – | – | thermostability, 3H-neurotensin (agonist) binding after the heating step [1]: small but significant increase in thermostability
B10 | improved thermostability | – | –
B11 | improved thermostability | – | –
B12 | improved thermostability | – | –
B13 | improved thermostability | – | –
B14 | – | improved thermostability | thermostability assayed with 3H-ZM241385 (antagonist) [2, 3]: improved thermostability
B15 | – | improved thermostability | –
B16 | – | improved thermostability | –
B17 | – | improved thermostability | –

Molecule | thermostability, heated in the presence of 3H-neurotensin [1] | thermostability measured with 3H-NECA (agonist) [2, 3] | further results
B18 | – | improved thermostability | –
B19 | – | improved thermostability | –
B20 | – | improved thermostability | –
B21 | – | improved thermostability | –
B22 | – | improved thermostability | –
B23 | – | – | Tm ([2]; ZM241385 bound): 48 °C
B24 | – | improved thermostability | –
B25 | – | improved thermostability | –
B26 | – | improved thermostability | –
B27 | – | improved thermostability | –
B28 | – | improved thermostability | –
B29 | – | improved thermostability | –
B30 | – | improved thermostability | –
B31 | – | improved thermostability | –
B32 | – | improved thermostability | –
B33 | – | improved thermostability | –
B34 | – | improved thermostability | –
